Laboratory results as given in patent US20130317087A1 (UNIVERSITY OF ROCHESTER, published 2013).
Blank lines part the entries; values can stand above or below the binder they belong to.

Assays:
[1] = target: the molecule itself; assay: sedimentation velocity analytical ultracentrifugation, rapid monomer-dimer equilibrium model
Protocol: After purifying GST-hSTAU1⁵⁵(367-476) from E. coli and removing the GST tag, SSM-‘RBD’5 migrated during gel filtration at the size of a dimer Sedimentation velocity determinations using analytical ultracentrifugation confirmed that the average weight distribution of SSM-‘RBD’5 shifted to lower Svedberg values at lower concentrations (FIG. 10C).
hSTAU1-SSM-‘RBD’5 was purified as above, except the final GF buffer contained 2.97 mM DTT, and submitted to the University of Connecticut Analytical Ultracentrifugation Facility for sedimentation velocity analysis. […] Measuring refractive index rather than absorbance was especially useful considering the low extinction coefficient at A₂₈₀ that typifies SSM-‘RBD’5; which lacks tryptophan residues. […] Data were analyzed using: 1) DcDt+, version 2.0.9 (Philo, 2000; 2006), to determine the sedimentation coefficient distribution that was independent of a model, 2) Sedfit, version 10.09beta (Schuck, 2000), to produce a model-based continuous sedimentation coefficient distribution using the Lamm equation or c(s) to identify the number of species (e.g., monomers vs dimers) in solution, and 3) Sedanal, version 5.60 to combine datasets from the three highest of four concentrations tested, perform a global analysis, and determine the protein association model using the Lamm equation.

hSTAU1^55-HA3 = target: T1, hSTAU1^55-HA3 (human, UniProt O95793-2 1-496); assay: anti-FLAG and anti-HA co-IP from HEK293T lysates with RNase A
T1 construct: also called STAU1-HA3
T1 sequence (looked up): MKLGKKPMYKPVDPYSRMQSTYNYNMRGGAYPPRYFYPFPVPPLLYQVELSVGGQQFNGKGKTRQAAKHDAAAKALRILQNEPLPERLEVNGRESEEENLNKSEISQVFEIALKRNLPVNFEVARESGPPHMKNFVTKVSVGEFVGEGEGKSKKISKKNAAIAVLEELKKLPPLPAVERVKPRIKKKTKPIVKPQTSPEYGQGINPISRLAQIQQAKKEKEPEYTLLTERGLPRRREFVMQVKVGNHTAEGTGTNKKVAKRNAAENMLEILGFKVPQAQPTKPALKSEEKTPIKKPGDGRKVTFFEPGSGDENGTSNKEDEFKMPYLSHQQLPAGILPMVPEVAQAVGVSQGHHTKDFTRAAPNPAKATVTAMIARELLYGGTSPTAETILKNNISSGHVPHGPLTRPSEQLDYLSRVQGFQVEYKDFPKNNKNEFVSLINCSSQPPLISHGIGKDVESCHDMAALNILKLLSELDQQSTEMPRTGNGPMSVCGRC
Text: To test this idea, HEK293T cells were transiently transfected with hSTAU1⁵⁵-HA₃ and one of three siRNA-resistant (R) plasmids that produce either hSTAU1^{55(R)}-FLAG, hSTAU1^{55(R)}Δ(C-Term)-FLAG or hSTAU1^{55(R)}Δ(SSM-‘RBD’5)-FLAG, each of which was expressed at the level of cellular hSTAU 1. hSTAU1^{55(R)}Δ(C-Term)-FLAG lacks all amino acids C-terminal to ‘RBD’5 Δ1. Cell lysates were immunoprecipitated in the presence of RNaseA using anti-FLAG or, as a negative control, mIgG.

B1: hSTAU1 SSM-‘RBD’5 (hSTAU1^55 amino acids 367-476, GST tag removed) (other)
chain: GPLGSKATVTAMIARELLYGGTSPTAETILKNNISSGHVPHGPLTRPSEQLDYLSRVQGFQVEYKDFPKNNKNEFVSLINCSSQPPLISHGIGKDVESCHDMAALNILKLLSELD
notes: Made in E. coli as a GST fusion from pGEX-6p-1, GST cleaved off; In monomer-dimer equilibrium; also called SSM-‘RBD’5(WT); hSTAU1^55(367-476)
Kd [1]: 79 µM

binding result (hSTAU1^55-HA3): binds
B2: hSTAU1^55(R)-FLAG (other, human, UniProt O95793-2 1-496, looked up, not shown: small tags and cut ends)
chain: T1 sequence (looked up)
notes: Expressed in HEK293T cells at the level of cellular hSTAU1; also called product of pcI-neo-hSTAU1^55(R)-FLAG

binding result (hSTAU1^55-HA3): binds
B3: hSTAU1^55(R)Δ(C-Term)-FLAG (other, human, UniProt O95793-2 1-422, looked up, not shown: small tags and cut ends)
chain: MKLGKKPMYKPVDPYSRMQSTYNYNMRGGAYPPRYFYPFPVPPLLYQVELSVGGQQFNGKGKTRQAAKHDAAAKALRILQNEPLPERLEVNGRESEEENLNKSEISQVFEIALKRNLPVNFEVARESGPPHMKNFVTKVSVGEFVGEGEGKSKKISKKNAAIAVLEELKKLPPLPAVERVKPRIKKKTKPIVKPQTSPEYGQGINPISRLAQIQQAKKEKEPEYTLLTERGLPRRREFVMQVKVGNHTAEGTGTNKKVAKRNAAENMLEILGFKVPQAQPTKPALKSEEKTPIKKPGDGRKVTFFEPGSGDENGTSNKEDEFKMPYLSHQQLPAGILPMVPEVAQAVGVSQGHHTKDFTRAAPNPAKATVTAMIARELLYGGTSPTAETILKNNISSGHVPHGPLTRPSEQLDYLSRVQGFQ
notes: domain: lacks all amino acids C-terminal to ‘RBD’5 α1; End at residue 422 is read from the primer; also called product of pcI-neo-hSTAU1^55(R)Δ(C-Term)-FLAG
